Assay results: the supplement of paper PMC12042874
± gives the uncertainty stated by the source.

Test: amyloid nucleation score (Sup35N fusion, yeast selection) (log enrichment); library NNK3; higher = more nucleation; inactive = no reads after selection
Procedure, shortened: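 Nucleation score is defined as the DiMSum log enrichment of output over input reads, with centring on the mode score of non-aggregating sequences. A minimum of 100 input reads was required for each sequence. Reads came from Illumina sequencing of plasmid inserts from psi-negative yeast expressing Sup35N fused to peptides of 20 random codons, induced with 100 μM copper sulfate for 24 hours and grown 7 days at 30°C on medium lacking adenine and uracil.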

Substance	amyloid nucleation score
HAGNWPSGSGRMSATRRFGW	inactive
VAFMIHYMKLPKYSHPWVHN	0.041 ± 0.59
LSFYMVKGLKNKI	inactive
YGSSHYPYNSY	inactive
NRVFPANLSSLSSCSTFTLW	inactive
GLANNYGQYRITSRAKLPRQ	inactive
DYRTH	inactive
GIFIKFGYR	inactive
PVECLDNDQGFLWPEVRVRG	inactive
LGIQYLDETHCPKSTSKGFS	inactive
SWNRYTLRLSPSGFLVKVSL	inactive
DLKTWSMLSFFGMYATYLIK	inactive
GISCNLYVINGICSWYFLVT	1.56 ± 0.07
RYPLSDDPLGIVWITYMLAN	inactive
TLFERRCSGTIMHRIQRREF	inactive
MFFWMCE	inactive
ITLGACS	inactive
MRLADLGMLGARTDQDRLPT	inactive
FVEYSSVQYAACNLDRLFLF	inactive
QSRMLELS	inactive
NRFVIIFSCLCFCPQSDMEL	2.37 ± 0.083
NFTSFCFSKMSRLEDSGQ	inactive
FDNKQGSFLKVLTFNFARVA	inactive
RLAGSFKLKSVYKGMLDYLA	0.819 ± 0.15

Substance	amyloid nucleation score
LIFGVIPCQPR	inactive
QNGCRLMTCC	inactive
LGLDTSSSVYCQSCGVRFSV	inactive
LCFAVSDCFNYKVLPILMGA	inactive
LVVATRRLMYGHRKVYAWVD	inactive
FNVYMIITNFLDPL	2.64 ± 0.062
HRFAGTKVALYGVKLGGARY	inactive
DDRVVPVLYQTCSAVRR	inactive
FTEKGGLPC	inactive
HAFEYVFISVTYQFNVKVIV	inactive
VWHMGWKLPDS	-0.39 ± 0.56
YYIPFASFVSQTCY	inactive
NVMDCSYITNVNIYSHHWDY	2.1 ± 0.055
ISILDLSSTF	inactive
RYLVRCSFWVGKNLV	0.722 ± 0.2
DWEARCCREVTGNGVFESQK	inactive
TTSNMGVVHYL	inactive
EYSVRADPGREMNGEISAWV	inactive
FWFFYNICRMLKSVT	inactive
RHVQG	inactive
LNSKIKLNYYLIF	0.108 ± 0.19
YFLRVNGSCANIDDHGLFSW	inactive
HCYWLVGSWRYFTALFEGGL	inactive
KWFAATVLSNKPREEKRMVT	inactive

Substance	amyloid nucleation score
ESLATNQVDMFSLSVRIFGP	inactive
SGLDSWY	inactive
WSDQTDRAGHFAVFNLSMGY	inactive
NINIMPG	inactive
VGTMKNLERVRVCYD	inactive
SLTVFLWVAQRVAAMRAGVL	inactive
SSHGSRGITVDT	inactive
YIILCSIFSYWENMGHI	2.78 ± 0.08
IKVISLEAMKTYCF	inactive
YCGWLCSSPPVQNV	inactive
RDLKFGWGWMGRTEISWYLF	inactive
ACGCYVSEIPWLRDRIKFWQ	inactive
MIQIIMLEGGLSCLRHLVIT	-0.362 ± 0.8
YDGIKSGFECLESGRKCKTA	inactive
RMPNSTFGVGWETGFQHSQG	inactive
TGGWTNNEQHFENSGMEVGT	inactive
MMPNELFDPVRKDRSFVRWV	inactive
GLSCDYCTNLVMCCDPQL	0.06 ± 0.25
FTRTREMENCNFLNFYRYMV	inactive
CVPWWLNMPVLDCTLWNSSV	inactive
DAHNRASLSYVPSYYVSFTA	inactive
CTSCILYFLLIYYHYNSS	inactive
GTVGHYRLST	inactive
RTNQLREPRANRWEGLAVLK	inactive

Substance	amyloid nucleation score
IRMYNSSERFYSPDKRHVPK	inactive
LDDRQSVCGTAYKVMTDIS	inactive
WKNLSYRGFHYWTALWHMVR	-0.12 ± 1
LCRRLQTGMAYHMVSSYFNW	inactive
YGSIRLNMYWFVCVCTISWI	0.661 ± 0.13
DYGMLCSLLSGDISNSEVGI	inactive
NVNMYIDFVLIDMNWQNCTQ	3.05 ± 0.062
CNGLNRIVDLNWNMMSIMRS	inactive
NYGGFKDFG	1.51 ± 0.088
DFARFIPFRPDFNFWGRLTG	inactive
AQSYSCFRNHFTDAVVCVFS	-0.496 ± 1.5
LGCRYFHYAILNPHQLDKIG	inactive
SRLMRKRISA	inactive
LDQTSRIVYVFTCSYWLDKV	inactive
STFGVVMTSSSD	inactive
HLRVMLLCFREYWDYAIMAL	inactive
TFKMQWECVIA	0.657 ± 0.16
REWIGLSTYDSA	inactive
YMTGLD	inactive
CLFQIIVNTSYIGKFHTVLG	1.88 ± 0.057
EPESTRMGLSTTILPVFRCL	-0.158 ± 0.83
WMELTVIQCWMAA	inactive
LSVLTL	inactive
LVYKLDVNCYDRNLLDSVEK	inactive

Substance	amyloid nucleation score
CVWAYLRLHGKWAF	0.598 ± 0.34
MFMVAIGAYEGCSGRRHREV	-0.238 ± 0.64
DIVTTHVGKSLG	inactive
AFKLYWKYCRYNPWVRNR	inactive
VMFMIAGNC	inactive
LDGGMNNRR	inactive
SWIVLYRMDS	inactive
MLMAPSYEYT	-0.209 ± 0.78
VFFLNIAIIRVECSYPLVRK	-0.223 ± 0.75
FKCAADCVFLALYYMDGWKS	inactive
LMMLCLSVGMMKRSAYRLFT	inactive
ARLAFGIGE	inactive
IRLVPWFW	inactive
LDSGISNHPNFIFTHTEFIN	inactive
RYVAVCSK	inactive
YVCSDSMLEARVREGTEYRS	-0.259 ± 0.98
MMVRWEVTV	-0.172 ± 1
VSSSVVYTFVMSSLLGVDNE	inactive
VRRSMATLFWCWDYTNLDCI	inactive
VRSFFYRSLYQCISRNPCCA	inactive
LQTMTDSFKRTQCLCSYKCT	inactive
GFIGK	inactive
WWSKVMYRSTPTLNAFKDRQ	inactive
RMLTHKQIIIRTVWTQYVYI	inactive

Substance	amyloid nucleation score
FLPDSFESYEKEVHTMDESS	inactive
SPRRH	inactive
IVNRIVVSSRRFSLVHWGWA	1.73 ± 0.11
LSFSLWNLEYIEISRRNLTL	1.2 ± 0.097
GSAVVAAECIGKRC	inactive
IGEILIVFALTRNTVVGYGF	inactive
FFILFMRRLDW	0.323 ± 0.22
LFALSWTS	0.182 ± 0.35
CFKFWWGIRENFKFLGDVMR	inactive
CSRWMWPENYRFSSEVPWYI	inactive
CSTISVTLALV	inactive
GNVIMLLVTLASGCIPLSSE	inactive
DVNFSLC	-0.002 ± 0.32
LIHICHRVQPHMSCDCVAMW	inactive
NLCRNDDSLFFCSS	inactive
TCCNQRFGVRWNIYYGSDVW	0.742 ± 0.15
FLNIGYLNSRYNFLRNSVLV	inactive
NWSTIECMYMASVVLNARFG	inactive
IFTLMINCLE	0.809 ± 0.1
PSGHV	inactive
LKNVTDKMHTYLRLEGSRHV	inactive
APNFCWSLFYVDSNVEFERL	inactive
TSRNESHTSDYSLLNHNSLL	inactive
FAGCTVGLTNYKRLWICVN	0.092 ± 0.72

Substance	amyloid nucleation score
YASFTK	inactive
MYLITGAFLCIHQHG	1.71 ± 0.075
FLYDVFPSPGLMMVLWFGLC	inactive
YVGYRFSHFSSGKRSCSYL	inactive
KCSTMGWRWYMSS	-0.106 ± 0.93
SLEGTYGHLRQELTTSPNAH	0.907 ± 0.17
NYFGPGKQWPID	inactive
NMLYTKRNTVSSALVIYCVN	inactive
YISLT	inactive
WRQVL	inactive
RFLLVVMF	inactive
RNGTHCTIDEIYGW	0.038 ± 0.58
MCDCL	inactive
INKSWGVFP	0.687 ± 0.18
SAVRGRCVLYGNRPLIHVRK	inactive
DTLYIASYEAVSGLRSPYER	inactive
RVEAPVMPKRRSIHQCSLKK	inactive
YFISWSFHGFVTSPGFWSGC	1.41 ± 0.15
